Series [1] deals with T1, Internalin A (InlA) (Listeria monocytogenes, UniProt P0DJM0 P0DJM0:36-770).
T1 sequence: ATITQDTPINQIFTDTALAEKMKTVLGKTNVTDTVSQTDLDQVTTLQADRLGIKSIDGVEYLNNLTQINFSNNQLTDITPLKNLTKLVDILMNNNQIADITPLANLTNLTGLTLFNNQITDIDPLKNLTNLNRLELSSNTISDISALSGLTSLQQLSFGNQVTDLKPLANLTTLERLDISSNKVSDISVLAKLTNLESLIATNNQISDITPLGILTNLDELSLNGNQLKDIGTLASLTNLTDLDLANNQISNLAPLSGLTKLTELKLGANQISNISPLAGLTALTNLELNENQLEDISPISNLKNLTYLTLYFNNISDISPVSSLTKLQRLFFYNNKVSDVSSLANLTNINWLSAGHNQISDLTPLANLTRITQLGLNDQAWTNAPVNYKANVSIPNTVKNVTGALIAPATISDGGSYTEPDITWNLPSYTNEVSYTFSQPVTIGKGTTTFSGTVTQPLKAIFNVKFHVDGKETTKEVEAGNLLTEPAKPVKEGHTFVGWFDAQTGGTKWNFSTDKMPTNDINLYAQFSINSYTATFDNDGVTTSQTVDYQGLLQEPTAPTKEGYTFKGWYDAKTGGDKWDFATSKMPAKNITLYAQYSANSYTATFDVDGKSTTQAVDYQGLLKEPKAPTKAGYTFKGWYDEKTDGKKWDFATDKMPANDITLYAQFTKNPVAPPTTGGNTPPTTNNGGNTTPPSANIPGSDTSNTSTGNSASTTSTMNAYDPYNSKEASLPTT
Description: ELONA; strong ELISA signal compared to library. Conditions: tags: His-tag. On the procedure:
A nickel-coated microplate (HisSorb, Qiagen) was used to bind 500 ng his-tagged inlA, peptide D or 0610 (Listeria monocytogenes-specific non-internalin cell wall protein) to the plate as per manufacturer's directions. Biotinylated aptamer or aptamer library (5 ng/μL) was heated to 95° C. for 3 minutes and quickly cooled to 4° C. for 5 minutes before application to each well. The biotinylated aptamer or aptamer library was incubated with the bound proteins in the HisSorb plate overnight at 4° C. with gentle shaking. Wells were then washed four times with 200 μL PBS-T. Streptavidin-horseradish peroxidase was added to the wells for 30 minutes at room temperature with gentle shaking. The wells were washed as described previously before development with TMB (Pierce). The reactions were stopped with 1M H₂SO₄ and absorbance was measured at 450 nm using a ThermoMax microplate reader (Molecular Devices). In FIG. 6, the initial aptamer library was used as a negative control, and the data represents the average±S.D. of n=3. […] The amount of selected aptamer bound to the particular proteins was determined by absorbance measured. The data represents the average±S.D. of n=3.
On the technique in general: In an ELISA, binding on a coated surface is turned into a signal by an enzyme label.

The target of series [2] is T1, Internalin A (InlA). Description: competition; competitive ELISA, sigmoidal fit. Conditions: tags: His-tag. As to the method: A specified amount of internalin A (500 ng) was coated on the plate. 5 ng/uL biotinylated aptamer A8 (SEQ ID NO:21) was incubated with increasing amounts of non-biotinylated aptamer A8 and then applied to the coated plates. Using GraphPad Prism 4 software, the Sigmoidal model (equation: a+(b−a)/(1+10̂(x−c))) was used to determine EC50.

As usually defined, the EC50 is the concentration at which the effect is half-maximal. Read a high EC50 as a less potent agent.

Turning to ATCGGGTTATAGTTAGCGGGTAGGGGAGGGAGGGTAGATAGCTCGAT (ssDNA) [InlA aptamer SEQ 25], the binding result with Internalin A (InlA) [1] is recorded as “binds”. The same measure, in the same setting: for ATCGGATGTGGGCAGGGGGGGGTGGGAAACGATTACAGACACAAGAT (ssDNA) [InlA aptamer SEQ 24] the value was “binds”. The molecule ATCCATGGGGCGGAGATGAGGGGGAGGAGGGCGGGTACCCGGTTGAT (ssDNA) [A8] had a half-maximal effective concentration (EC50) with Internalin A (InlA) [2] of 544 nM.

As for ATCTAGGACTGGGTGGGAAGGGATGGGAAAAATGTCCGCGCCTCGAT (ssDNA) [InlA aptamer SEQ 22], in the series with Internalin A (InlA) [1], the binding result is “binds”. Regarding ATCAGCAACAAGTGTGGGTAAGGGGAGGGCGGGAATGGGATGATGAT (ssDNA) [InlA aptamer SEQ 23], the binding result with Internalin A (InlA) [1] is “binds”.

The record behind these values is patent publication US20090264512, “NUCLEIC ACID LIGANDS CAPABLE OF BINDING TO […] OR INTERNALIN A” (published 2009).
